Biological target: methylated PP2A C subunit (epitope-tagged, immunoprecipitated), P67775
Sequence (P67775 whole entry): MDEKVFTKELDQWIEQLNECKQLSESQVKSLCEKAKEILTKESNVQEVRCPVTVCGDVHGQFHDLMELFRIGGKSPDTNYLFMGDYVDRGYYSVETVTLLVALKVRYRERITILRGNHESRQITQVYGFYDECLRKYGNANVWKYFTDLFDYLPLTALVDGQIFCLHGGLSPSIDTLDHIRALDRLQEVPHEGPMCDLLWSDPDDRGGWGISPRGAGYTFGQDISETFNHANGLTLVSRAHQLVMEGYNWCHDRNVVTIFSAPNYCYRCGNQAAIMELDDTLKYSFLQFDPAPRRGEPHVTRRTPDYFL

B1: recombinant human Protein Phosphatase Methylesterase-1 (PME-1) (protein)
chain: MSALEKSMHLGRLPSRPPLPGSGGSQSGAKMRMGPGRKRDFSPVPWSQYFESMEDVEVENETGKDTFRVYKSGSEGPVLLLLHGGGHSALSWAVFTAAIISRVQCRIVALDLRSHGETKVKNPEDLSAETMAKDVGNVVEAMYGDLPPPIMLIGHSMGGAIAVHTASSNLVPSLLGLCMIDVVEGTAMDALNSMQNFLRGRPKTFKSLENAIEWSVKSGQIRNLESARVSMVGQVKQCEGITSPEGSKSIVEGIIEEEEEDEEGSESISKRKKEDDMETKKDHPYTWRIELAKTEKYWDGWFRGLSNLFLSCPIPKLLLLAGVDRLDKDLTIGQMQGKFQMQVLPQCGHAVHEDAPDKVAEAVATFLIRHRFAEPIGGFQCVFPGC
- PP2A methylesterase activity: demethylation of immunoprecipitated C subunit, immunoblot with methylation-sensitive antibody 4b7: human PME-1 is a PP2A methylesterase
- amount of 3H-methyl groups remaining on C subunit after 1 h at 32° C., SDS-PAGE: PME-1 was clearly able to demethylate PP2A C subunit as measured by this assay
- methylesterase activity towards PP2A C subunit: lysates of bacteria expressing PME-1 contain a PP2A methylesterase activity not found in bacterial lysates lacking PME-1
- signal of the antibody that only recognizes unmethylated PP2A against a methylation-insensitive antibody, immunoblot: PME-1 was clearly able to demethylate PP2A C subunit, as measured by this assay

Source: US6528295
